Data on ten molecules can be found in US20220356229A1 (published 2022).

One assay deals with T1, HKU1 full length Spike (human coronavirus HKU1, UniProt Q5MQD0 13-1276).
T1 sequence: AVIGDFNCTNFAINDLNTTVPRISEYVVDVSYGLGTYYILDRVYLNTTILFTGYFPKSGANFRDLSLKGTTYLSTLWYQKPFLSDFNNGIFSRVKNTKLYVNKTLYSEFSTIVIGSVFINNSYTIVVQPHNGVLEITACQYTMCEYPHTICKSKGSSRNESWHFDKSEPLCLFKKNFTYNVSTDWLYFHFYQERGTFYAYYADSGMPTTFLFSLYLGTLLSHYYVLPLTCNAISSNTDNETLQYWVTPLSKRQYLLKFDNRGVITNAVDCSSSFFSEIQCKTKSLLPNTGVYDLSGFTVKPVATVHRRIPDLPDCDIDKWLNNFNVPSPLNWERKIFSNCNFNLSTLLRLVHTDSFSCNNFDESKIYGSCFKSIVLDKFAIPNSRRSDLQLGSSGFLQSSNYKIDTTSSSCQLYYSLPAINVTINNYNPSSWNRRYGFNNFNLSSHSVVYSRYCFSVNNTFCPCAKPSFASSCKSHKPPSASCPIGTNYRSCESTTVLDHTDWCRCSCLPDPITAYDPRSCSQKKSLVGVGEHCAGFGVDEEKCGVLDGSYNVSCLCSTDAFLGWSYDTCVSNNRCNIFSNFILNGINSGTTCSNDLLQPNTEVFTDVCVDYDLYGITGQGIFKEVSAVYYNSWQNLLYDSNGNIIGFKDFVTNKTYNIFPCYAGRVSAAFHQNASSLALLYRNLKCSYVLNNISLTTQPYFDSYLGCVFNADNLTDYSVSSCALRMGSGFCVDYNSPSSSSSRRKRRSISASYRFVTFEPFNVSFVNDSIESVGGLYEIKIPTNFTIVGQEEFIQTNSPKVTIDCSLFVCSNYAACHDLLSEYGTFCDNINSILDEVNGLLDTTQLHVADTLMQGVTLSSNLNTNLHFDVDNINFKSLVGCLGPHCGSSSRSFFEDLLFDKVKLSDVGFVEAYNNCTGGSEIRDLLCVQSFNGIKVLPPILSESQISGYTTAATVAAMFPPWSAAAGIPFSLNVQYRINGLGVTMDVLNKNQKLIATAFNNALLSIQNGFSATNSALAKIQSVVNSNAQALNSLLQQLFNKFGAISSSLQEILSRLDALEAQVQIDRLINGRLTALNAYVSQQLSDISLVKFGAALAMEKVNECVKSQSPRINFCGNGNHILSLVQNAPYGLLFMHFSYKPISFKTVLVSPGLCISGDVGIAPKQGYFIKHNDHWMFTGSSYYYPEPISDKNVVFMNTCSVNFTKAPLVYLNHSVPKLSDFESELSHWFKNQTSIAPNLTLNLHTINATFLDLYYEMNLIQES

A further assay has as its target T2, MERS full length Spike (MERS-CoV, UniProt K9N5Q8 18-1291).
T2 sequence: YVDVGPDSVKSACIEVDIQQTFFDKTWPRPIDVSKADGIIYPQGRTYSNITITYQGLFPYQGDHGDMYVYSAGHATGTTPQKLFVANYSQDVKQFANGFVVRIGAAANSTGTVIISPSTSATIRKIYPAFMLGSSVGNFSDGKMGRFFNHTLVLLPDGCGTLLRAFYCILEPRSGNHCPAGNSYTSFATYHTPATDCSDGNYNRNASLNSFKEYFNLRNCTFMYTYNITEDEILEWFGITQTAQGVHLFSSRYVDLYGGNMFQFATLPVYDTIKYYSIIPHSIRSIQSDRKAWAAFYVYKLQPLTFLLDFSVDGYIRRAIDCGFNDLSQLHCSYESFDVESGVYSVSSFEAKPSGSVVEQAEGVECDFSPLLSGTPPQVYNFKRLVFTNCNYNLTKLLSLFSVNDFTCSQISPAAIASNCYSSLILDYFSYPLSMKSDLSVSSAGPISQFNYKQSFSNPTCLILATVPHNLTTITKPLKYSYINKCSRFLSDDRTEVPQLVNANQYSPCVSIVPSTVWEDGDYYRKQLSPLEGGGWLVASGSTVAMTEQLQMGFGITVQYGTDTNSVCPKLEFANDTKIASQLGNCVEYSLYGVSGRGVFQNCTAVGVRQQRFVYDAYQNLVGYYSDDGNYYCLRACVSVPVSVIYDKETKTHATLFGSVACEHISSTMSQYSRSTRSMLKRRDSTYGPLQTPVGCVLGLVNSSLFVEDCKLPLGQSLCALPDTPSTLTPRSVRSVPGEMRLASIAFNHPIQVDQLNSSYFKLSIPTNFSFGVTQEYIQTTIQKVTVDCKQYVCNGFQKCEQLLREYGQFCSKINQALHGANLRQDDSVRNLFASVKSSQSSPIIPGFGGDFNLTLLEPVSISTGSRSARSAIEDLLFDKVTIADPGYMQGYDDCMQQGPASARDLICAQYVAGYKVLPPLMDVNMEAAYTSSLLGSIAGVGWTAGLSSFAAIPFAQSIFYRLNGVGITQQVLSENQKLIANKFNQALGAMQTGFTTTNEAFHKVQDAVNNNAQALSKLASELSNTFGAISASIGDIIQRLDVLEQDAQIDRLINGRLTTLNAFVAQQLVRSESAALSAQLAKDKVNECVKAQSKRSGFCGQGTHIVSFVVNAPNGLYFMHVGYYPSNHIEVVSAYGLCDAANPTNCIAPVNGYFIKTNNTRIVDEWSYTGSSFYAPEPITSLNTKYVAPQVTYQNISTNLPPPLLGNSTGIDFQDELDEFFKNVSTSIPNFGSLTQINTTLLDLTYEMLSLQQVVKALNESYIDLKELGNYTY

Assay [1] deals with SARS-CoV full length Spike (SARS-CoV, UniProt P59594 14-1190).
For assay [2], the target named is SARS-CoV-2 Spike (S) protein, wild type, full length (SARS-CoV-2, UniProt P0DTC2 14-1208).

B1: mAb 1037 (antibody, V domains shown)
VH: QITLKESGPTLVKPTQTLTLTCTFSGFSLSTSGVGVGWIRQPPGKALEWLALIYWDDDKRYSPSLKSRLTITKDTSKNQVVLTMTNMDPVDTATYYCAHHTITRINDYWGQGTLVTVSS
VL: QSALTQPASVSGSPGQSITISCTATSSDVGAYNYVSWYQQHPGKAPKLMIYDVSKRPSGVSNRFSGSKSGNTASLTISGLQAEDEADYYCSSYTSSSTVFGGGTKLTVLG
Consider B1, for which the “median fluorescence intensity, fold over isotype control” value (from here on “median fluorescence intensity, fold”) with HKU1 full length Spike stood at 1.43 fold over isotype; with MERS full length Spike, 1.06 fold over isotype; in assay [1], 4.36 fold over isotype.

B2: mAb 1404 (antibody, V domains shown)
VH: QITLKESGPTLVKPTQTLTLTCTFSGFSLSISGVGVGWLRQPPGKALEWLALIYWDDDKRYSPSLKSRLTISKDTSKNQVVLKMTNIDPVDTATYYCAHHSISTIFDHWGQGTLVTVSS
VL: QSALTQPASVSGSPGQSITISCTATSSDVGDYNYVSWYQQHPGKAPKLMIFEVSDRPSGISNRFSGSKSGNTASLTISGLQAEDEADYYCSSYTTSSAVFGGGTKLTVLG
As to B2, the “median fluorescence intensity, fold” value with HKU1 full length Spike is 0.94 fold over isotype; with MERS full length Spike, 0.91 fold over isotype; in assay [1] it was 0.97 fold over isotype.

B3: mAb 1135 (antibody, V domains shown)
VH: EVQLVESGGGLVQPGRSLRLSCAASGLTFEDYAMHWVRQVPGKGLEWVSGISWNSGTIGYADSVKGRFIISRDNAKNSLYLQMRSLRAEDTALYYCAKDVGFGELLYYAFDIWGQGTMVTVSS
VL: QSALTQPASVSGSPGQSITISCTGTSSDVGGYNYVSWYQQHPGKAPKLMIYDVSNRPSGVSNRFSGSKSGNTASLTISGLQAEDEADYYCSSYTSSSTVVFGGGTKLTVLG
Take B3: the “median fluorescence intensity, fold” value turned out to be 0.83 fold over isotype in the assay with HKU1 full length Spike, 0.93 fold over isotype with MERS full length Spike and 0.92 fold over isotype in assay [1].

B4: mAb 1149 (antibody, V domains shown)
VH: QVQLVQSGAEVKKPGASVKVSCKASGYTFASYDINWVRQATGQGPEWMGWMIPNIGNTGYAQKFQGRVTMTRNTSISTAYMELSSLTSEDTAVYYCARVSRLFNDFGLRHEAPVDFWGQGTRVTVSS
VL: QSVLTQPPSVSGAPGQRVTISCTGSSSNIGAGYDVHWYQQLPGTAPKLLIYGYSSRPSGVPDRFSGSKSGTSASLAITGLQAEDEADYYCQSYDSSLSVLFGGGTKLTVLG
In the case of B4, the “median fluorescence intensity, fold” value stood at 0.83 fold over isotype with HKU1 full length Spike, 1.04 fold over isotype with MERS full length Spike and 1.05 fold over isotype in assay [1].

B5: mAb 1538 (antibody, V domains shown)
VH: EVQLLESGGGLVQPGGSLRLSCAASGFTFSSYAMSWVRQAPGKGLEWVSGISDSGGSTYYADYVKGRFTISRDNSKDTLYLQMNSLRAEDTAVYYCAKDRGNEYALTHYYYYAMDVWGQGTTVTVSS
VL: DIQMTQSPSSLSASVGDRVTITCRASQSISSYLNWYQQKPGKAPKLLIYAAYSLQSGVPSRFSGGGSGTDFTLTISSLQPEDFATYFCQQSYSTPITFGQGTRLEIKR
B5: the “median fluorescence intensity, fold” value stood at 0.97 fold over isotype in the assay with HKU1 full length Spike, 0.95 fold over isotype in the assay with MERS full length Spike and 0.99 fold over isotype in assay [1].

B6: mAb 1495 (antibody, V domains shown)
VH: QVQLVESGGGVVQPGRSLRLSCTASGFTFSSYAMHWVRQAPGKGLEWVAVISYDGNNKYYGDSVKGRFTISRDNSKNTLYLQMNSLRAEDTAVYYCAKGADTPHYSGYHFLSVGYYFYGMDVWGQGTTVTVSS
VL: DIQMTQSPSSLSASVGDRVTITCRASQSISYYLNWYQQKPGKAPQLLIYAASSLQSGVPSRFSGSRSGTDFTLTISSLQPEDFATYYCQQSYSTPFTFGPGTKVDIKR
Take B6: the figures for the “median fluorescence intensity, fold” value (in the assay with HKU1 full length Spike; in the assay with MERS full length Spike; in assay [1]) were 1.05 fold over isotype, 0.93 fold over isotype and 1.08 fold over isotype, respectively.

B7: mAb 1075 (antibody, V domains shown)
VH: QVQLVQSGAEVKKPGASVKVSCKVSGYTLIELSMHWVRQAPGKGLEWMGGFDPEDGETIYAQKFQGRVTMTEDTSTDTAYMELSSLRSEDTAVYYCATEWAYYGSGSYLGYWGQGTLVTVSS
VL: EIVMTQSPATLSVSPGERATLSCRASQSVSSNLAWFQQKPGQAPRLLIYGASTRVTVIPARFSGSGSGTEFTLTISSLQSEDFAVYYCQQYNNWPRTFGQGTKVEIKR
As for B7, the “median fluorescence intensity, fold” value with HKU1 full length Spike amounted to 0.93 fold over isotype; with MERS full length Spike, 0.89 fold over isotype; in assay [1] it was 0.91 fold over isotype.

B8: mAb 1444 (antibody, V domains shown)
VH: QVQLVQSGAEVKKPGASVKVSCKASGYTFTAYYMHWVRQAPGQGLEWMGWINPNSDDTNYAQKFQGRVTMTRDTSISTAYMELSRLRSDDTAVYYCAREEGVFTIGDRYFDLWGRGTLVSVSS
VL: QTVVTQEPSFSVSPGGTVTLTCGLSSGSVSTSYYPSWYQQTPGQAPRTLIYNTNTRSSGVPDRFSGSILGNKAALTITGAQADDESDYYCVLYMGSGIWVFGGGTKLTVLG
With B8, the “median fluorescence intensity, fold” value with HKU1 full length Spike was determined as 0.98 fold over isotype; in the assay with MERS full length Spike it was 0.98 fold over isotype; in assay [1], 1.03 fold over isotype.

B9: antibody 288 (antibody, V domains shown)
VH: EVQLVESGGGLVQPGGSLRLSCAASGFTFSSYDMHWVRQATGKGLEWVSAIGTAGDTYYPGSVKGRFTISRENAKNSLYLQMNSLRAGDTAVYYCARGANRDYDILTGYYSYYYYGMDVWGQGTTVTVSS
VL: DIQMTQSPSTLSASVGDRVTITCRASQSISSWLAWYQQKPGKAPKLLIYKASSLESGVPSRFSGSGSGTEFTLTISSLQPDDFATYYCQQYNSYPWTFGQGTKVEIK
As to B9, in assay [2], the “bead binding signal (fold over isotype)” value was 495 fold over isotype.

B10: mAb 1585 (antibody, V domains shown)
VH: QVQLVESGGGVVQPGRSLRLSCAASGFTFSRFTLHWVRQAPGKGLEWVAVISYDGSNKYYADSVKGRFTISRDNSKSTLYLQMNSLRAEDTGVYYCARDPSTVTGYFDYWGQGTLVTVSS
VL: SYVLTQPPSVSVAPGKTAKISCGGDSIGSKSVHWYQQKPGQAPVLVIYYDNDRPSGIPERFSGSNSGNTATLTISRVEAGDEADYYCQVWDIGVVFGGGTKLTVLG
Take B10: the figures for the “median fluorescence intensity, fold” value (with HKU1 full length Spike; with MERS full length Spike; in assay [1]) were 0.88 fold over isotype, 0.94 fold over isotype and 25.8 fold over isotype, respectively.
